{
  "source": "paper PMC12803513",
  "binders": {"B1": {"name": "Prefoldin 5 (natural protein)", "chain": "MAATPSAPAKSEMIDLTKLSPEQLIQIKQEFEQEITNVQDSLSTLHGCQAKYAGSKEALGTFQPNWENRQILVPLTSSMYVPGRVKDLNRFVIDIGTGYYIEKDLEGSKDYFKRRVEYVQEQIEKIEKIHLQKTRFYNSVMSVLEMKQAAAAKLQSQQQSQPAVTQSS"}},
  "target": "microtubules (polymers of alpha- and beta-tubulin) of Drosophila head lysate (D. melanogaster (endogenous in adult fly heads)) (UniProt P06603)",
  "sequence (P06603 whole entry, chain 1 of 2)": "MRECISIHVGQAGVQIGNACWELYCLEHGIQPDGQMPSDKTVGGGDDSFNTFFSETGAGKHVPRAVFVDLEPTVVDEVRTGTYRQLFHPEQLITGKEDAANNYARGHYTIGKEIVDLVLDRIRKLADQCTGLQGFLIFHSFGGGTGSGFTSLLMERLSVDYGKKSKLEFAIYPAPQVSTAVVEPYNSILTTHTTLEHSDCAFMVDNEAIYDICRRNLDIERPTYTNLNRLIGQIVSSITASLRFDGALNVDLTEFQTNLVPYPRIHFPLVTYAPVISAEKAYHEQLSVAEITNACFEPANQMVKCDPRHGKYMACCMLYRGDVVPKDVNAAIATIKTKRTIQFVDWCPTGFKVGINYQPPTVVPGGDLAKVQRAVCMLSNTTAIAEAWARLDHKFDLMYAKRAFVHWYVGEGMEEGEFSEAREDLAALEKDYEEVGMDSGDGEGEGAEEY",
  "sequence (Q24560 whole entry, chain 2 of 2, further chain)": "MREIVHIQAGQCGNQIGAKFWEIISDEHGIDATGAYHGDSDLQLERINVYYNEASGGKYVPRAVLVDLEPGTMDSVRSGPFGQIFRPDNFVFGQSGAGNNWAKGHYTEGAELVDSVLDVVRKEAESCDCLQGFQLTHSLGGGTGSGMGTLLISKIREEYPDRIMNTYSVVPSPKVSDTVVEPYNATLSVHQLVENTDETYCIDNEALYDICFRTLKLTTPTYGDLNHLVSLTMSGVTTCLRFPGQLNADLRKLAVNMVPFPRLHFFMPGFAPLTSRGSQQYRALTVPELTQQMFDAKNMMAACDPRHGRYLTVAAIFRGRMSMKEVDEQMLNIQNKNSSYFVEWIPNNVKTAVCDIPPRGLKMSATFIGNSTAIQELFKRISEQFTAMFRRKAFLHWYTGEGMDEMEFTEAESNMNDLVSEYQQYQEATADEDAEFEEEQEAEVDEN",
  "assay": "co-sedimentation; in vivo microtubule-binding assay: 50 wild-type fly heads homogenised in Buffer-C+ (50 mM HEPES pH 7.1, 1.0 mM MgCl2, 1.0 mM EGTA, protease and phosphatase inhibitors) with 20 uM Taxol; 100,000 x g for 30 min through a 50% sucrose cushion; pellet blotted with anti-Pfdn5 and anti-ace-tubulin",
  "data": [
    {"binder": "B1", "values": [
      {"measurement": "percentage of Pfdn5 in the pellet fraction", "value": 36.7, "unit": "%"}
    ]}
  ]
}
